Here are results for three molecules from patent US20210277122A1 (SHANGHAI HENLIUS BIOTECH, published 2021).

The term EC50 (read off the curve) denotes the concentration needed to bring the measured effect to its halfway point. Usually Kd stands for the free concentration of one partner at which half of the binding sites on the other are occupied at equilibrium, for simple one-to-one binding. As usually defined, the koff is the first-order rate constant of dissociation. Usually kon stands for the second-order rate constant of association.

Experiment [1] has as its target T1, Cynomolgus PD-1 (cynomolgus monkey).
T1 construct: PD-1 part of a purchased recombinant PD-1/Fc fusion protein; immobilized at 9 ng per well; also called recombinant cynomolgus monkey PD-1 fusion protein; PD-1/Fc (Sino Biological Inc.)
Nature of the experiment: ELISA on immobilized cynomolgus monkey PD-1/Fc (9 ng per well), peroxidase-labeled anti-human IgG F(ab)'2, OD450nm. For orientation: In an ELISA, binding on a coated surface is turned into a signal by an enzyme label.

The target of experiment [2] is T2, Human PD-1 (human).
T2 construct: PD-1 part of a purchased recombinant PD-1/Fc fusion protein; immobilized at 9 ng per well; also called recombinant human PD-1 fusion protein; PD-1/Fc (Sino Biological Inc.)
Nature of the experiment: ELISA on immobilized human PD-1/Fc (9 ng per well), peroxidase-labeled anti-human IgG F(ab)'2, OD450nm.

Experiment [3] addresses T3, PD-1-His (purified recombinant 6xHis-tagged PD-1_ECD) (UniProt Q15116 25-170).
T3 construct: extracellular domain
Briefly: competition ELISA: PD-1-His (0.1 µg/ml) first bound to a plate coated with the referenced anti-PD-1 (4 µg/ml), antibody dilutions added afterwards; anti-His-HRP, OD450.

Experiment [4] deals with T3, PD-1-His (purified recombinant …). Briefly: SPR, full-length IgG, PD-1-His analyte (method of Example 3). In general terms: Surface plasmon resonance follows binding to a sensor surface in real time, without labels.
The target is the same in experiment [5]. Briefly: blocking ELISA: antibody dilutions mixed with PD-L1-AP, added to PD-1-His coated wells, OD405.
The target is the same in experiment [6]. Nature of the experiment: SPR, antibody captured on anti-human IgG Fc, PD-1-His analyte, 25 C, 1:1 Langmuir.
For experiment [7] the target is unchanged. Nature of the experiment: SPR, affinity improvement against the referenced anti-PD-1 antibody.
The target is the same in experiment [8]. Briefly: competition ELISA: antibody dilutions pre-mixed with PD-1-His (0.1 µg/ml), then added to a plate coated with the referenced anti-PD-1 (4 µg/ml); anti-His-HRP, OD450.
In experiment [9] the target is T4, recombinant human PD-1 at the cell surface (PD-1 transfected CHO-S cells) (human, UniProt Q15116 25-288).
T4 construct: whole, on cells; Also used as the target in the mixed leukocyte reaction rows, where it is human PD-1 on T cells; also called PD-1 expressing CHO-S cells; PD-1 expressed CHO-S cells
Nature of the experiment: blocking flow cytometry: PD-1 expressing CHO-S cells incubated with antibody, washed, then biotin-labeled PD-L1-Fc and streptavidin-PE, MFI. On the technique in general: In flow cytometry, cells or beads pass a laser one at a time.

Experiment [10] deals with T3, PD-1-His (purified recombinant …). Nature of the experiment: SPR, affinity improvement against anti-PD-1 ref.
For experiment [11] the target is unchanged. Nature of the experiment: ELISA on PD-1-His, anti-human IgG Fc-HRP, OD450.
Experiment [12] addresses T5, PD-1 on activated human T cells.
T5 construct: the sheet names no target
Nature of the experiment: flow cytometry on PHA-activated human T cells, FITC-labeled anti-human IgG Fcγ, MFI.

T3 sequence (Q15116 other isoform, or with tags, fused parts or gaps limits assumed): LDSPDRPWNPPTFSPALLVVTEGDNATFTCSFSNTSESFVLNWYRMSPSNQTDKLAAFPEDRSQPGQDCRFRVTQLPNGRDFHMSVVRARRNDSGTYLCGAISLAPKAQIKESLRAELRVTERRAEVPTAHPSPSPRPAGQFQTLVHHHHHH
T2 sequence (Q15116 25-170): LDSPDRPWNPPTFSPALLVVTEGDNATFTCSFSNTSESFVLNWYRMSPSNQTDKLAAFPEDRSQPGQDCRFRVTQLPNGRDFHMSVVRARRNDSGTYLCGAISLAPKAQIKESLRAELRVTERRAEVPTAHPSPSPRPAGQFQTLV
T4 sequence (Q15116 25-288): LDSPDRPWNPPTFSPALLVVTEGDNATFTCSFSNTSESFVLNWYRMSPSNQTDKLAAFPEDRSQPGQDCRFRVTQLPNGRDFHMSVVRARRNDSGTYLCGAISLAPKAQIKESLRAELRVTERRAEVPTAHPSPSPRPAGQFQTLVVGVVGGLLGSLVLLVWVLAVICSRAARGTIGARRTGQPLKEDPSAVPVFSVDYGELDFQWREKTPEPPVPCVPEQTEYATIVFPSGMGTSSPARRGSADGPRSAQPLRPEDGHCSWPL
T5 sequence (chain, as listed by the source limits assumed): as the sequence (Q15116 25-288) above

B1: referenced anti-PD-1 antibody (antibody, human IgG4 S228P, kappa, V domains shown)
VH: QVQLVESGGGVVQPGRSLRLDCKASGITFSNSGMHWVRQAPGKGLEWVAVIWYDGSKRYYADSVKGRFTISRDNSKNTLFLQMNSLRAEDTAVYYCATNDDYWGQGTLVTVSS
VL: EIVLTQSPATLSLSPGERATLSCRASQSVSSYLAWYQQKPGQAPRLLIYDASNRATGIPARFSGSGSGTDFTLTISSLEPEDFAVYYCQQSSNWPRTFGQGTKVEIKR
Turning to B1, the concentration giving a half-maximal response (EC50 (read off the curve)) was approximately 0.03 µg/mL in experiment [1] and approximately 0.02 µg/mL in [2].

B2: chimeric anti-PD-1 antibody c1G4 (antibody, human IgG4 S228P, kappa, V domains shown)
VH: EVMLVESGGGLVKPGGSLKLSCAASGFTFSNYGMSWVRQTPEKSLEWVATISGGGSNIYYPDSVKGRFTISRDNAKNNLFLQMSGLRSEDTALYYCVSYYYGIDFWGQGTSVTVSS
VL: DIVMTQSHKFMSTSVGDRVSITCKASQDVTTAVAWYQQKPGQSPKLLIYWASTRHTGVPDRFTGSGSGTDYTLTINSVQAEDLALYYCQQHYTIPWTFGGGTKLEIKR
notes: also called chimeric c1G4
For B2, the “IC50 (read off the curve)” value in experiment [3] is approximately 0.8 µg/mL; in [5] it was approximately 0.4 µg/mL; in [8], approximately 0.5 µg/mL; in experiment [9] it was approximately 0.6 µg/mL. Further, the dissociation constant (Kd) in experiment [4] amounted to 325 pM; in [6], 434 pM. The figures for the koff in experiment [4] and in [6] were 0.000177 s⁻¹ and 0.000104 s⁻¹, respectively. Moreover, the results for the on-rate constant (kon) in experiment [4] and in experiment [6] were 550000 M⁻¹ s⁻¹ and 244000 M⁻¹ s⁻¹, respectively. Moreover, the Improvement in experiment [7] amounted to 9.38 fold; in [10] it was 4.07 fold. Moreover, the concentration for a half-maximal effect (EC50 (read off the curve)) in experiment [11] is approximately 0.04 µg/mL.

B3: humanized anti-PD-1 antibody 1G4 (h1G4) (antibody, human IgG4 S228P, kappa, V domains shown)
VH: QVQLVESGGGLVKPGGSLRLSCAASGFTFSNYGMSWIRQAPGKGLEWVSTISGGGSNIYYADSVKGRFTISRDNAKNSLYLQMNSLRAEDTAVYYCVSYYYGIDFWGQGTSVTVSS
VL: DIQMTQSPSSLSASVGDRVTITCKASQDVTTAVAWYQQKPGKAPKLLIYWASTRHTGVPSRFSGSGSGTDFTLTISSLQPEDFATYYCQQHYTIPWTFGGGTKLEIKR
notes: CDRs of c1G4 grafted onto IGKV1-39*01 and IGHV3-11*04; also called HLX10; humanized h1G4
For the molecule B3, the entries for the “EC50 (read off the curve)” value in [1], in experiment [12] and in experiment [2] were approximately 0.04 µg/mL, approximately 0.1 µg/mL and approximately 0.03 µg/mL, respectively. In addition, the values for the Kd in experiment [4] and in experiment [6] were 479 pM and 265 pM, respectively. The koff was determined as 0.000216 s⁻¹ in [4] and 7.98e-05 s⁻¹ in experiment [6]. The figures for the kon in experiment [4] and in experiment [6] were 457000 M⁻¹ s⁻¹ and 310000 M⁻¹ s⁻¹, respectively. The Improvement in experiment [7] came to 6.37 fold; in experiment [10], 6.66 fold.
